According to patent US11773143B2, “Conformational epitopes in respiratory syncytial virus G protein central conserved region” (priority 2017, dated 2023):
Where no end group is shown, it is not given here.

How the values were obtained:
[1] = target: T1, CX3CR1 (Homo sapiens, UniProt P49238); assay: Chemotaxis assay: RSV G modulation of CX3CR1, receptor-mediated chemotaxis of THP-1 cells (transwell); type: cell-based; details: for Chemotactic activity: RSV G (CCR) variants, chemotaxis assay of Example 4, duplicate assays, standard deviations in parentheses
T1 construct: THP-1 cells (a human leukemia monocytic cell line) washed twice and suspended in serum-free RPMI 1640 media; endogenous in cells; host or cells: THP-1
T1 sequence (P49238 1-355): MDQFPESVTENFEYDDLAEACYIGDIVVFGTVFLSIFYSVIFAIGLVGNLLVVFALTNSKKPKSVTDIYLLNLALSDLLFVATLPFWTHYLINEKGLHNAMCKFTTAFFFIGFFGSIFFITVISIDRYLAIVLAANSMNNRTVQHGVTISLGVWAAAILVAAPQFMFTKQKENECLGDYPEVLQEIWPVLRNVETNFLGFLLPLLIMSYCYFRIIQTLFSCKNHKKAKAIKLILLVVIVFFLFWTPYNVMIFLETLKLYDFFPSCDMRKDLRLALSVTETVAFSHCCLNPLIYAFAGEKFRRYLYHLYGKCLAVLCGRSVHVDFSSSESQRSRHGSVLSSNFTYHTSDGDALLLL
Protocol: An in vitro assay for RSV G modulation of CX3CR1 measures receptor mediated chemotaxis of human monocyte THP-1 cells {Tripp, R. A. et al. Nature Immunology (2001) 2:732-738}. […]
In more detail, the assay was performed using a transwell insert plate with an 8 µm pore size. Approximately 2 million log-phase THP-1 cells (a human leukemia monocytic cell line) washed twice and suspended in serum-free RPMI 1640 media were added to the upper chamber of the insert plate. Negative control was serum-free media alone to which serum-free media containing 25 nM mAb was added to the lower chamber. As a positive control, media containing 10% FBS was added to the lower chamber. RSV G[ecto] or RSV G[161-197] samples were added to the lower chamber at a final concentration of 5 nM in serum-free media. For samples with RSV G[161-197] and mAbs, RSV G[161-197] was pre-incubated with 5-molar excess mAb for 20 min at room temperature, and then added to serum-free media in the lower chamber, for a final concentration of 5 nM RSV G[161-197] and 25 nM mAb. For samples with anti-CX3CR1 antibody, 2 μL 1 mg/mL anti-CX3CR1 rabbit polyclonal antibody (ThermoFisher Scientific Cat #PA5-19910) was incubated with THP-1 cells for 30 minutes in the upper chamber before being placed into the well. The assembled plates were incubated in a CO2 incubator at 37° C. for 5 h. Cells migrated to the lower chamber were counted, and the chemotactic indices were determined by comparing the fold-increase in cell migration toward the chemoattractant to cell migration toward serum-free media alone. Experiments were performed in at least four biological replicates.
Determination of structures of RSV G CCR protein in complex with the high affinity antibodies 2D10 and 3D3 shown in FIG. 4A-B provide a roadmap to design RSV G immunogens to disable CX3CR1 binding without disrupting the ability to generate high-affinity mAb epitopes. Specifically, six highly conserved amino acids have been identified whose side-chains make no molecular contacts with mAbs 3D3 and 2D10, so they can be substituted without impacting generation of high affinity mAbs similar to these mAbs. These residues are therefore candidates for substitution in order to interfere with binding to CX3CR1. Generally, providing an alteration in charge (charge switch) and/or a change in size or shape resulting in a steric hinderance (steric clash) would be expected to result in a negative impact on such binding. […] Six representative mutants have been tested for their impact on CX3CR1 function as measured by the chemotaxis assay described in Example 4. Table 4 summarizes the results of duplicate assays (with standard deviations) using the standard one letter abbreviations for the amino acid at the indicated residue.

[2] = test system: RSV; details: mice, day 5 post-inoculation, vs isotype control; cited from earlier work
[3] = test system: RSV; details: in vitro; cited from earlier work
[4] = target: RSV G protein (Human respiratory syncytial virus A, UniProt P03423); details: read-out: affinity; mAb binding to RSV G protein; cited from earlier work
Sequence of RSV G protein (P03423 whole entry): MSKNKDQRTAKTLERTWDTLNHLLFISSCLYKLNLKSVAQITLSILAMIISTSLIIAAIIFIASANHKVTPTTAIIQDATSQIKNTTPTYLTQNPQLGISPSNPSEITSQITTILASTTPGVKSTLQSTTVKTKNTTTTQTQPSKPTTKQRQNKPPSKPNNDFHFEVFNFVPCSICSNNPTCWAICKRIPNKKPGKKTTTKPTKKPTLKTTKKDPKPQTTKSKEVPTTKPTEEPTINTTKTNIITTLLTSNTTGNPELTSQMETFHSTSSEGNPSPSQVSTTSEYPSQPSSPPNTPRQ

## E166→K + K187 →E: RSV G (CCR) double variant, charge switch (NDFHFKVFNFVPCSICSNNPTCWAICERIPNKKPGKK; not fully specified (bridges); cysteine pairing not given here)
[1]
  Chemotactic activity: 1.8 (0.1)

## E166→K: RSV G (CCR) variant, E166 to K, charge switch (NDFHFKVFNFVPCSICSNNPTCWAICKRIPNKKPGKK; not fully specified (bridges); cysteine pairing not given here)
[1]
  Chemotactic activity: 1.6 (0.7)

## H164→Y: RSV G (CCR) variant, H164 to Y, steric clash (NDFYFEVFNFVPCSICSNNPTCWAICKRIPNKKPGKK; not fully specified (bridges); cysteine pairing not given here)
[1]
  Chemotactic activity: 3.8 (0.4)

## K192→E + K193 →E: RSV G (CCR) double variant, charge switch (NDFHFEVFNFVPCSICSNNPTCWAICKRIPNEEPGKK; not fully specified (bridges); cysteine pairing not given here)
[1]
  Chemotactic activity: 2.5 (0.7)

## S177→R: RSV G (CCR) variant, substitution of arginine for serine at position 177 (NDFHFEVFNFVPCSICRNNPTCWAICKRIPNKKPGKK; not fully specified (bridges); cysteine pairing not given here)
[1]
  Chemotactic activity: 0.9 (0.2)

## S177→W: RSV G (CCR) variant, S177 to W, steric clash (NDFHFEVFNFVPCSICWNNPTCWAICKRIPNKKPGKK; not fully specified (bridges); cysteine pairing not given here)
[1]
  Chemotactic activity: 1.2 (0.4)

## Synagis: humanized mouse mAb against RSV F protein
[2]
  effect on total BAL cells: did not reduce total BAL cells

## Wild type RSV G (CCR) (NDFHFEVFNFVPCSICSNNPTCWAICKRIPNKKPGKK; not fully specified (bridges); cysteine pairing not given here)
[1]
  Chemotactic activity: 6.2 (0.7)

B1: 3D3: high affinity, broadly neutralizing human mAb binding RSV G protein CCR (antibody, V domains shown)
VH: EEQLVESGGGLVQPGRSLRLSCVGSGLRFEEHAMHWVRQAPGRGLEWVSGISWNSGSVGYADSVKGRFTTSRDNAKDILFLEMNTLRSEDTALYFCAIMVATTKNDFHYYKDVWGKGTTVTVSS
VL: QIVLTQSPATLSLSPGERATLSCRASQSVSNHLAWYQQKPGQAPRLLIYETSNRATGIPPRFSGSGSGTDFTLTISSLEPEDFAVYYCQQRNNWYTFGQGTKLEIK
[3]
  viral neutralizing activity: broad neutralizing activity
[1]; THP-1 cells, level comparable to anti-CX3CR1 polyclonal serum
  Blocking of RSV G[161-197]-induced chemotaxis by pre-incubation with mAb: blocked
[4]
  Kd: 1.1 pM
